In the test the target is HPV52L1-C428A (human papillomavirus type 52 (HPV52)). Put plainly: SEC; HPSEC on TSK Gel G 5000 pwxl, 10 mM PB pH 6.5, 0.5 M NaCl; serial molar ratios of C175A and C428A mutants; chVLP fraction analysed by SDS-PAGE and western blotting; pentamers to VLP. For orientation: SEC sorts molecules by how far they enter the pores of the column.

On to HPV16L1-C175A (domain or fragment), for which the stoichiometry N (C175A:C428A molar ratio) stood at 1.

The values above are taken from publication PMC7275066.
